Data taken from the nanobody polyreactivity screen of Harvey et al. (2022).

Assay: yeast display, Sf9 membrane polyspecificity reagent, FACS + sequencing; frameworks hold sequencing errors
Outline: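 A synthetic nanobody library was expressed on Saccharomyces cerevisiae BJ5465 by galactose induction for 36–48 hours. The library was stained for 1 hour at 4 °C with 10% biotinylated, detergent-solubilized Sf9 membrane reagent and enriched with streptavidin microbeads before FACS. Low and high (top ~1%) gates were set on anti-HA fluorescence for expression and streptavidin fluorescence for reagent binding, and each polyreactivity label reflects the gate of origin.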

Row | Sequence | polyreactivity (PSR sort gate)
1 | QVQLVETGGGLVQAGGSLRLSCASSGFIFVRYAMGWYRQAPGKERELVAAITKGGGRTYYADSVKGRFTISRDNAKNTVYLQMNSLKPEDTAVYYCATAGAHGRERDYWGQGTQVTVSS | high polyreactivity
2 | QVQHVESGGGLVQAGGRLRLSCAASGRIFGGYTMGWYRQAPGKERELVAAINSGGSTYYADSVKGRFTISRDNAKNTVYLQMNCLKPEDTAVYYCAKVRSYFGKYGYGYWGQGTQVTVSS | high polyreactivity
3 | QVQLVESGGGLVQAGGSLRLSCAASGRTFAVNGKGWYRPAPGKERELVAAISSGGSTNYADSVKARFTISRDNAKNTVYLQLNSLKPEDTAVYYCAADYTRAHISYYYWGQGTQVTVSS | high polyreactivity
4 | QVQLVESGGGLVKAGGSLRLSCAASGSNFTFYAMGWYRQAPGKVRELDATISLRGGRKYYADSVKGRFTISRDNAKNTVYLQMNSLKPEDTAVYYCNAPAYYGGYRFRGYNYWGQGTQVTVSS | high polyreactivity
5 | QVQLVESGGGLVQAGGSLRLSCAASGRIFAYNAMGWYRQAPGKERELVAAISSGGNTYYADSVKGRFTISRDNAKNTVYLQMNSLKPEDTAVYYCNAGVGWHRYYSNYDFWGQGTQVTVSS | low polyreactivity
6 | QVQLVESGGGLVQAGGSLRLSCAASGIIFYKNAMGWYRQAPGKDRELVAAISGSGGRTYYADSVTGRFTISRDNGKNTVYFQMNSLKPEDTAVYYCAARQPYRHGYESWGQGSQVTVSS | high polyreactivity
7 | QVQLVESGGGLVQAGGSLRLSCAASGSIFGKNAMGWYRQAPGKERELVASITWDGSSTYYADSVKGRFTISRDNAKNTVYLQMNSLKPEDTAVYYCNADYHVQYEYYPYDYWGQGTQVTVSS | low polyreactivity
8 | QVQLVESGGGLVQAGGSLRLSCAASGGIFRLYGMGWYRQAPGKERELVAAIRQSGGRTYYADSVKGRFTISRDNAKNTVYLQMNSLKPEDTAVYYCAADLLYRSSGSARLDYDYWGQGTQVTVSS | low polyreactivity
9 | QVQLVESGGGLVQAGGSLSLSCAASGFILDYNTKGWYRQAPGKEREVVAAISSSGDTTYYADSVKGRFTISRDNAKYTVYLQMNSLKPEDTAVYYCAREYGDGYEYWVQGTQVTVSS | low polyreactivity
10 | QVQLVESGGGLVQAGGSLRLSCAASGSTFYHNAMGWYRPAPGKERELVAAISRADVSTYYADSVKGRFTISRDNAKNTVYLQMNSLKPEDTAVYFGAAYWYGSQYKWRYDYWGQGTQVTVSS | low polyreactivity
11 | QVQLVESGGGLVQAGGSLRLSCAASGFIFDIYAMGWYRQAPGKERELVASITWDDGSTYYADSVKGRFTISRDNAKNTVYLQMNRLKPVDTAVYYCAADFEAGGYSLDYWGQGTQVTVSS | low polyreactivity
12 | QVQLVESGGGLVQAGGSLRLSCAASGYTFDANAMGWYRQAPGKERELVAAIRSGGGLTYYADSVKGRFTISRDNAKNTVYLQMNSLKPEDTAVYYCAAVTRRDSFEYWGQGTQVTVSS | low polyreactivity
13 | QVQLVESGGGLVQAGGSLRLSCAASGSTFAAYVMGWYRQAPGKERELVAAISTSGGGTYYADSVKGRFTISRDTAKNTVYLQMNSLKPEDTAVYYCAADYGSGSVSYDYWGQGTQVTVSS | low polyreactivity
14 | QVQLVESGGGLVQAGGSLRLSCAASGRTFWYYDMGWSRQAPGKERELVAAISRSGGSTYYADSVKGRFTISRDNAKNTVYLQMNSLKPEDTAVYFCAAVSYGYWVTEYYYWGQGSQVTVSS | high polyreactivity
15 | QVQLVESGGGLVQAGGSLRLSCAASGRIFGVYAMGWYRQAPGKERELVAAISRGGSTKYADSVKGRFTISRDNAKNTVYLQMNSLKPEDTAVYYCAARRWGRVYTTYTGGYWGQGTQVTVSS | high polyreactivity
16 | QVQLVESGGGLVQAGGSLRLSCAASGLTFVWYAMGWYRQAPGKERELVASITRRGVSTYADSVKGRFTISRDNAKNTVYLQMNSLKPEDTAVYYCKAQLIYKKGWYDYWGQGTQVTVSS | high polyreactivity
17 | QVQLVESGGGLVQAGGSLRLSCASSVRIFEVYAMGSYRQAPGKERELVADITYSGGSTYYADSVKGRFTISRDNAMNTVYLQMNSLKPEDTAVYYCAADVTFVHRYEYYRSYDYWGQGTQVTVSS | low polyreactivity
